Experimental data reported in publication PMC11472053, “Structural basis of DNA recognition by BEN domain proteins reveals a role for oligomerization in unmethylated DNA selection by BANP” (Nucleic Acids Research, 2024).
Numbering of substitutions follows the chain as printed.

Assays:
[1] = molecular target: T1, BANP BEN WT (human, UniProt Q8N9N5 205-325); assay: ITC; ITC: 20 mM Tris pH 7.5, 200 mM NaCl, 2 mM beta-mercaptoethanol, 20 C; EMSA: 20 mM Tris pH 7.0, 200 mM NaCl, 2 mM DTT, 4 C, 1.2% agarose in TAE; conditions: protein: recombinant; tags: His-SUMO or His-MBP, cleaved; chain copies: 2; blunt, self-complementary
T1 sequence: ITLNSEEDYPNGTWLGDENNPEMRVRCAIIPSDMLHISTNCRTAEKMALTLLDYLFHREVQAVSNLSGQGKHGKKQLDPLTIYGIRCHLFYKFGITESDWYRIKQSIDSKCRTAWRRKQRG

[2] = molecular target: T2, BANP full-length WT (human, UniProt Q8N9N5 1-519); assay: as above; conditions: protein: recombinant; tags: His-SUMO or His-MBP, cleaved; chain copies: 4; blunt, self-complementary
T2 sequence: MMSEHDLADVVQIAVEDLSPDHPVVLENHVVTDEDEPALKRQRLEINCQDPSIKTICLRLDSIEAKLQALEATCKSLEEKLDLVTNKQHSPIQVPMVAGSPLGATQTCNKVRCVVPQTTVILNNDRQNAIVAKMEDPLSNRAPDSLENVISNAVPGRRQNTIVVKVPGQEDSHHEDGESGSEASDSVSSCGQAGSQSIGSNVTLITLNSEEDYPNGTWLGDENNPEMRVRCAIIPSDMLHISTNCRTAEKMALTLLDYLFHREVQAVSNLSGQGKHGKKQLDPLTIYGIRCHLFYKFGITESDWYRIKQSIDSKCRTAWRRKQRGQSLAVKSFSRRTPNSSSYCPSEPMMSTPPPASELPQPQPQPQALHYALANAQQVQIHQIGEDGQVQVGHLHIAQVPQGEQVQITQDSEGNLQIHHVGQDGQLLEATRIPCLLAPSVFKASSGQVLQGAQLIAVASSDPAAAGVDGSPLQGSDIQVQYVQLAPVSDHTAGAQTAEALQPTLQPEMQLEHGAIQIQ

[3] = molecular target: T3, BANP BEN-DBD (human, UniProt Q8N9N5 205-519); assay: as above; conditions: protein: recombinant; tags: His-SUMO or His-MBP, cleaved; blunt, self-complementary
T3 sequence: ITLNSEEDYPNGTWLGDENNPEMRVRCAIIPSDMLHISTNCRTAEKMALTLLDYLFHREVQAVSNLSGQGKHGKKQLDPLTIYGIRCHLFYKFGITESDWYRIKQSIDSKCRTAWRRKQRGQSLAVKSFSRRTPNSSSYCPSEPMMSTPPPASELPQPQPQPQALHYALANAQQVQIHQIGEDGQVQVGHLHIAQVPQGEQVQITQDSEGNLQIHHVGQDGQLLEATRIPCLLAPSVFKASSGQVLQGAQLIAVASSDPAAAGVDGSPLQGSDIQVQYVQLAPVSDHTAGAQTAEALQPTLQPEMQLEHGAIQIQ

[4] = molecular target: T4, BANP ΔCC (human, UniProt Q8N9N5 90-519); assay: as above; conditions: protein: recombinant; tags: His-SUMO or His-MBP, cleaved; blunt, self-complementary
T4 sequence: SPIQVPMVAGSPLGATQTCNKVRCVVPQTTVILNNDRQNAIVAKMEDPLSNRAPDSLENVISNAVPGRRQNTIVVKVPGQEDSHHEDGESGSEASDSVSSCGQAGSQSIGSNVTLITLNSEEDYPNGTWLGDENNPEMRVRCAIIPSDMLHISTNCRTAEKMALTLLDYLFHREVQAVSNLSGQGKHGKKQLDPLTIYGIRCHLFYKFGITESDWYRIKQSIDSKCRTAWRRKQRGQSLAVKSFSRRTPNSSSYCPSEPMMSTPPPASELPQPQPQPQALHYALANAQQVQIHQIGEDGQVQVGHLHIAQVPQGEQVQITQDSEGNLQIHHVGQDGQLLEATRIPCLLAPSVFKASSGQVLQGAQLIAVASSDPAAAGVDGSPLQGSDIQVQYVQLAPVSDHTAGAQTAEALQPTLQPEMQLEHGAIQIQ

[5] = molecular target: T5, BANP CC-BEN (ΔDBD) (human, UniProt Q8N9N5 1-360); assay: as above; conditions: protein: recombinant; tags: His-SUMO or His-MBP, cleaved; blunt, self-complementary
T5 sequence: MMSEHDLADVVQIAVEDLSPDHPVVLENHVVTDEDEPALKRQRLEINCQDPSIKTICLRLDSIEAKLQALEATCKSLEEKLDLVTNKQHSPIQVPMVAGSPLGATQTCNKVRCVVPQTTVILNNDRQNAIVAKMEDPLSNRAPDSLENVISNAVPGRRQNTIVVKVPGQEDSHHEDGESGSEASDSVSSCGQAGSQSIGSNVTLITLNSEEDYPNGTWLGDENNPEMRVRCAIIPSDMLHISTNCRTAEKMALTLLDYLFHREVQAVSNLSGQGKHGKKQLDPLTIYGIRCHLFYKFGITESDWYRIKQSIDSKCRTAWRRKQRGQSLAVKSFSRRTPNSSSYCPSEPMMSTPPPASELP

[6] = molecular target: T6, GST-BANP BEN (human, UniProt Q8N9N5 205-325); assay: as above; conditions: protein: recombinant; tags: N-terminal GST fusion; chain copies: 2; blunt, self-complementary
T6 sequence: T1 sequence

[7] = molecular target: T7, NACC1 BEN D462A (human, UniProt Q96RE7 341-477, D462A); assay: as above; conditions: protein: recombinant; tags: His-SUMO or His-MBP, cleaved; blunt, self-complementary
T7 sequence: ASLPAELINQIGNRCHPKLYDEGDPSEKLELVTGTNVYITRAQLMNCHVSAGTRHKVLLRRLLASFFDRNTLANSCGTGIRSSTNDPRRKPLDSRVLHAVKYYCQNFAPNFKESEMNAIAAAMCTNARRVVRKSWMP

[8] = molecular target: T8, NACC1 BEN WT (human, UniProt Q96RE7 341-477); assay: as above; conditions: protein: recombinant; tags: His-SUMO or His-MBP, cleaved; blunt, self-complementary
T8 sequence: T7 sequence with A122D

[9] = molecular target: T9, NACC1 BEN R429A (human, UniProt Q96RE7 341-477, R429A); assay: as above; conditions: protein: recombinant; tags: His-SUMO or His-MBP, cleaved; blunt, self-complementary
T9 sequence: T7 sequence with R89A, A122D

[10] = molecular target: T10, NACC1 BEN N466A (human, UniProt Q96RE7 341-477, N466A); assay: as above; conditions: protein: recombinant; tags: His-SUMO or His-MBP, cleaved; blunt, self-complementary
T10 sequence: T7 sequence with A122D, N126A

[11] = molecular target: T11, NACC1 BEN R421A (human, UniProt Q96RE7 341-477, R421A); assay: as above; conditions: protein: recombinant; tags: His-SUMO or His-MBP, cleaved; blunt, self-complementary
T11 sequence: T7 sequence with R81A, A122D

[12] = molecular target: T12, NACC1 BEN R472A (human, UniProt Q96RE7 341-477, R472A); assay: as above; conditions: protein: recombinant; tags: His-SUMO or His-MBP, cleaved; blunt, self-complementary
T12 sequence: T7 sequence with A122D, R132A

[13] = molecular target: T13, NACC1 BEN R469A (human, UniProt Q96RE7 341-477, R469A); assay: ITC; Kd N.A.; almost completely abolished; ITC: 20 mM Tris pH 7.5, 200 mM NaCl, 2 mM beta-mercaptoethanol, 20 C; EMSA: 20 mM Tris pH 7.0, 200 mM NaCl, 2 mM DTT, 4 C, 1.2% agarose in TAE; conditions: protein: recombinant; tags: His-SUMO or His-MBP, cleaved; blunt, self-complementary
T13 sequence: T7 sequence with A122D, R129A

B1: 12-mCGCG (dsDNA)
DNA 1: ATCTCGCGAGAT
DNA 2: ATCTCGCGAGAT
modifications: 5-methyl-C at position 5 of each strand (palindrome; called hemi-methylated, one CpG methylated)
How did the Kd [1] turn out when B1 was run?
Its Kd is 5.6 ± 0.7 µM.

What about the Kd [2] of the same binder?
Its Kd is 4.9 ± 1.4 µM.

What about the Kd [3] of the same binder?
Its Kd is 8.3 ± 0.6 µM.

What about the Kd [4] of the same binder?
Its Kd is 5.6 ± 0.9 µM.

And the Kd [5]?
Its Kd is 4.3 ± 0.8 µM.

And the Kd [6]?
The Kd was 3.5 ± 0.6 µM.

B2: 12-CATG (dsDNA)
DNA 1: ATTACATGTAAT
DNA 2: ATTACATGTAAT
What does the source list for B2?
Kd [7]: 4.6 ± 0.4 µM; Kd [8]: 1.3 ± 0.2 µM; Kd [9]: 34.7 ± 4.5 µM; Kd [10]: 2.9 ± 0.4 µM; Kd [11]: 4.6 ± 0.6 µM; Kd [12]: 8.6 ± 1.4 µM; binding result [13]: no binding
